From publication PMC12233901, “Resolving the APN controversy in PEDV infection: Comparative kinetic characterization through single-virus tracking” (PLOS Pathogens, 2025)

Biological target: T1, porcine aminopeptidase N (pAPN) fused with a hFc tag (porcine, UniProt P15145)
T1 construct: also called porcine APN; source: HEK293T cell expression system, expressed and purified
T1 sequence: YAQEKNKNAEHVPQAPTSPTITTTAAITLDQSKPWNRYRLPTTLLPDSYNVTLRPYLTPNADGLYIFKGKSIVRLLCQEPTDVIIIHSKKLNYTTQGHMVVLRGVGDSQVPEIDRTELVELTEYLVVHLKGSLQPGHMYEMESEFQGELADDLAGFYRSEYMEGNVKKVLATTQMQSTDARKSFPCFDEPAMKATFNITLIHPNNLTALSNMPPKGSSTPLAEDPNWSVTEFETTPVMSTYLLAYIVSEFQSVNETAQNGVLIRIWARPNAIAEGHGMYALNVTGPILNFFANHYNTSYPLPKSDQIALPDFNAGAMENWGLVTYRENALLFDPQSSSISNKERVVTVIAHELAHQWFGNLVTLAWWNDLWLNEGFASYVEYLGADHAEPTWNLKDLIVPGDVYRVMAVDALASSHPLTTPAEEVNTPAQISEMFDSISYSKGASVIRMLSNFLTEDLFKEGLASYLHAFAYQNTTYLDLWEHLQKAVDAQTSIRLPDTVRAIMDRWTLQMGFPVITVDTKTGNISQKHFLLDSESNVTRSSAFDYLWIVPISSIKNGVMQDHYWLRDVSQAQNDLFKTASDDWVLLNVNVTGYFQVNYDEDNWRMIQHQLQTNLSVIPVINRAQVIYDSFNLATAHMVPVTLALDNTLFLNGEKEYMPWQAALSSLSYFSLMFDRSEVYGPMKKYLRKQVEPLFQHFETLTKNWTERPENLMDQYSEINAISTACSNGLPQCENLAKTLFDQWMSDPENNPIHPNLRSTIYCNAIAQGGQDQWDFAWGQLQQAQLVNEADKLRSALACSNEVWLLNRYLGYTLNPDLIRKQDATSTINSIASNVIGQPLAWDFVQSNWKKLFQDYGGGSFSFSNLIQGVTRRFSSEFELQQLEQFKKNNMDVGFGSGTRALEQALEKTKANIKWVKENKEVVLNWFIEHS
Assay: SPR; […]; Biacore 8K, room temperature
Settings: both partners purified

B1: PEDV S1 protein with a C-terminal His tag (domain or fragment)
chain: CQSTTNFRRFFSKFNVQAPAVVVLGGYLPSMNSSSWYCGTGIETASGVHGIFLSYIDSGQGFEIGISQEPFDPSGYQLYLHKATNGNTNAIARLRICQFPDNKTLGPTVNDVTTGRNCLFNKAIPAYMRDGKDIVVGITWDNDRVTVFADKIYHFYLKNDWSRVATRCYNRRSCAMQYVYTPTYYMLNVTSAGEDGIYYEPCTANCTGYAANVFATDSNGHIPEGFSFNNWFLLSNDSTLLHGKVVSNQPLLVNCLLAIPKIYGLGQFFSFNHTMDGVCNGAAVDRAPEALRFNINDTSVILAEGSIVLHTALGTNLSFVCSNSSDPHLAIFAIPLGATEVPYYCFLKVDTYNSTVYKFLAVLPPTVREIVITKYGDVYVNGFGYLHLGLLDAVTINFTGHGTDDDVSGFWTIASTNFVDALIEVQGTSIQRILYCDDPVSQLKCSQVAFDLDDGFYPISSRNLLSHEQPISFVTLPSFNDHSFVNITVSAAFGGLSSANLVASDTTINGFSSFCVDTRQFTITLFYNVTNSYGYVSKSQDSNCPFTLQSVNDYLSFSKFCVSTSLLAGACTIDLFGYPAFGSGVKLTSLYFQFTKGELITGTPKPLEGITDVSFMTLDVCTKYTIYGFKGEGIITLTNSSILAGVYYTSDSGQLLAFKNVTSGAVYSVTPCSFSEQAAYVNDDIVGVISSLSNSTFNNTRELPGFFYH
  Kd: 47.5 µM

B2: TGEV S1 protein with a C-terminal His tag (domain or fragment)
chain: IGNHWNLIETFLLNYSSRLPPNSDAVLGDYFPTVQPWFNCIRNNSNDLYVTLENLKALYWDYAIENITSNHKQRLNVVVNGYPYSITVTTTRNFNSAEGAIICICKGSPPTTTTESSLTCNWGSECRLNHKFPICPSNSEANCGNMLYGLQWFADAVVAYLHGASYRISFENQWSGTVTLGDMRATTLETAGTLVDLWWFNPVYDVSYYRVNNKNGTTVVSNCTDQCASYVANVFTTQPGGFIPSDFSFNNWFLLTNSSTLVSGKLVTKQPLLVNCLWPVPSFEEAASTFCFEGAGFDQCNGAVLNNTVDVIRFNLNFTTNVQSGKGATVFSLNTTGGVTLEISCYNDTVSDSSFSSYGEMPFGVTDGPRYCYVLYNGTALKYLGTLPPVVKEIAISKWGHFYINGYNFFSTFPIDCISFNLTTGDSDVFWTIAYTSYTEALVQVENTAITKVTYCNSYVNNIKCSQLTANLNNGFYPVSSSEVGLVNKSVVLLPSFYTHTIVNITIGLGMKRSGYGQPIASTLSNITLPMQDDNTDVYCIRSDQFSVYVHSTCKSALWDNVFKRNCTDVLDATAVIKTGTCPFSFAKLNNYLTFNKFCLSLSPVGANCKFDVAARTRTNDQVVRSLYVIYEEGDNIVGVPSDNSGLHDLSVLHLDSCTDYNIYGRTGVGIIRQTNRTLLSGLYYTSLSGDLLGFKNVSDGVIYSVTPCDVIAQAAVIDGTIVGAITSINSELLGLTHWTTTPNFYYY
  Kd: 0.392 µM
